Patent publication US20250090677A1 (MULTITUDE THERAPEUTICS, published 2025)
Numbering of substitutions follows the chain as printed.

How the values were obtained:
Assay in all cases: ELISA, antigen coated at 1 ug/mL, 3-fold antibody dilutions, HRP anti-human antibody, OD450
rat CDH6-ECD-His = biological target: T1, rat CDH6-ECD-His (rat, UniProt P55280 54-615)
T1 construct: extracellular domain; Bought protein; not shown: His tag
T1 sequence (looked up): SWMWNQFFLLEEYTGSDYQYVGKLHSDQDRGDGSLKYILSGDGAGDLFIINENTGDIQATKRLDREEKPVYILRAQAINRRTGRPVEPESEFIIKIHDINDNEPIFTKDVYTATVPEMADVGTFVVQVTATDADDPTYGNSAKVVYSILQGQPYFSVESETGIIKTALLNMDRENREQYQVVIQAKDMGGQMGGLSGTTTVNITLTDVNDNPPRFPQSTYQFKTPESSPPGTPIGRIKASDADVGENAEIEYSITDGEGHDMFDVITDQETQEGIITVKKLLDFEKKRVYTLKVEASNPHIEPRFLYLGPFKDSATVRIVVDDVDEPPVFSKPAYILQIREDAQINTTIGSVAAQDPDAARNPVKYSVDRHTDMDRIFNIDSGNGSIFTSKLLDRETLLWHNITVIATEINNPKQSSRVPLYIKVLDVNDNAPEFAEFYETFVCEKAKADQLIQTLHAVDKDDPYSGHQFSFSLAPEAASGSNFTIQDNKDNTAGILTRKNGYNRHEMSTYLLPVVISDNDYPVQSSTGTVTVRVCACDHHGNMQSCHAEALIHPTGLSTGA
Procedure: (§1) CDH9 and […] are the most closely related family members to CDH6. Binding of CL069707-H1L1 on human CDH6, CDH9 and CDH10 ECD domains were analyzed by ELISA Binding Assay. Human […], CDH9-ECD-His and CDH10-ECD-His antigens were obtained from Acro Biosystems, Inc. 100 μL of 1 μg/mL of the antigens diluted in PBS were added to 96 well plates and incubated in 4° C. overnight. The plates were washed 3 times with 300 μL of washing buffer. Then 100 μL/well of 1% BSA blocking reagent were added to the plates, and incubated at 37° C. for 1 h then the blocking reagent were discarded. A 3-fold serial dilution of CL069707-H1L1 was added to the plates and then incubated at 37° C. for 1 h. Then the plates were washed 3 times with 300 μL of washing buffer. 100 μL/well of HRP-conjugated anti-Human antibody diluted in 1% BSA were added to the plates and then incubated at 37° C. for 1 h. The plates were washed 3 times with 300 μL of washing buffer. 100 μL/well of TMB substrate were added to the plates and incubated for about 10 min in room temperature. Then the reaction was stopped with 100 μL/well of stopping solution. OD450 was read with a plate reader and the data were processed.
(§2) Binding of CL069707-H1L1 on human, cyno monkey, mouse or rat CDH6 antigen were analyzed by ELISA. Human, cyno monkey, mouse and rat CDH6-ECD-His antigens were obtained from Acro Biosystems, Inc. ELISA were done with the same methods as in example 3.1. CL069707-H1L1 binds to human, cyno monkey, mouse and rat CDH6-ECD-His antigens with similar EC50.

cyno monkey CDH6-ECD-His = biological target: T2, cyno monkey CDH6-ECD-His (cyno monkey, UniProt A0A2K5TW62 54-615)
T2 construct: extracellular domain; Bought protein; also called Cyno CDH6-ECD-His; not shown: His tag
T2 sequence: T1 sequence (looked up) with D109E, A119S, H260L, R288K, I301V, D322E, P333L, A353T, H457R
Procedure: as §1, §2

mouse CDH6-ECD-His = biological target: T3, mouse CDH6-ECD-His (mouse, UniProt P97326 54-615)
T3 construct: extracellular domain; Bought protein; not shown: His tag
T3 sequence (looked up): T1 sequence (looked up) with I78V, D261E, R288K, I301V, P333L, Q344R, H457R, G481S
Procedure: as §1, §2

Measured: EC50 (read off the curve)

B1: CL069707-H1L1 (antibody, human IgG1, kappa, V domains shown)
VH: EVQLVESGGGLVQPGGSLRLSCAASGFTFTTYAMNWVRQAPGKGLEWVARIRIKNNNYATYYADSVTDRFTISRDDSKNSLYLQMNSLKTEDTAVYYCVRPDYGNYGLAYWGQGTLVTVSS
VL: DIQLTQSPSSLSASVGDRVTITCSASSSISSHYLHWYQQKPGKSPKLLIYRSFYLASGVPSRFSGSGSGTDFTLTISSLQPEDFATYYCQQDIVPLTFGQGTKLEIKR
notes: Humanized IgG1/kappa, produced in 293 cells; also called humanized CL069707-H1L1
~0.1 nM: all assays above
